In US20080248467, “System for pulling out regulatory elements using yeast” (published 2008):

Molecular target: Pax3 (GST fusion or 6xHis) (UniProt P24610 P24610:1-479)
Assay: EMSA; 25 C
Conditions: tags: GST-Pax3 or 6xHis-Pax3, bacterially expressed; label: 32P; overhangs
Method: Probes were generated by end-labeling double-stranded oligonucleotides with γ³² P-dATP or PCR labeling with α³²P-dGTP. Probes were incubated with or without 6×-His-Pax3 or GST-PAX3 at 25° C., and the complexes were resolved on a 6% Tris-glycine polyacrylamide gel. The free probes are designated by the bottom bracket, and the shifted Pax3:DNA complex by the asterisk to the right of each gel.
Probes were generated by end labeling double-stranded oligonucleotides with γ³²P-dATP or PCR labeling with α³²P-dGTP. Probes were incubated with or without 6×-His-Pax3 or GST-PAX3 at 25° C., and the complexes were resolved on a 6% Tris-glycine polyacrylamide gel. The location of the free probes is indicated by the bracket at left, and the shifted Pax3:DNA complexes by the asterisks to the right of each gel.

Chain of Pax3 (GST fusion or 6xHis) (P24610 whole entry, the tested form may be a part, one chain of several): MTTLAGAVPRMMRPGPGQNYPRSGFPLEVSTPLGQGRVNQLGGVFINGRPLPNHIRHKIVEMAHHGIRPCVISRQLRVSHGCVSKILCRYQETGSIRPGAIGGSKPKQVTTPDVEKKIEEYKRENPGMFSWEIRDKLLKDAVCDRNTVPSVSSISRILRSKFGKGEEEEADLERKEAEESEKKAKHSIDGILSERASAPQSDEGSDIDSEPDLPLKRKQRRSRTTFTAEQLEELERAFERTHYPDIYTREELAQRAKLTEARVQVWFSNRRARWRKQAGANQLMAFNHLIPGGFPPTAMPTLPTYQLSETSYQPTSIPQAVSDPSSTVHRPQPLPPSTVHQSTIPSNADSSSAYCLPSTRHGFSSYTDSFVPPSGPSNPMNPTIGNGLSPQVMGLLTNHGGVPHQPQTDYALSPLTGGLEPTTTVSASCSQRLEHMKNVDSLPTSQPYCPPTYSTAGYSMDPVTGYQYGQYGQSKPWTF

B1: 2x Pax3 oligo (dsDNA)
DNA 1: CAGTGACGATTAGCACCGTCACGCTTAGATATAGTGACGATTAGCACCGTCACGCTTAGATATA
DNA 2: CGCGTATATCTAAGCGTGACGGTGCTAATCGTCACTATATCTAAGAGTGACGGTGCTAATCGTCACTGAGCT
- binding result: binds
